Assay results published in the supplement of paper PMC5998384.

Experiments:
HeLa Kyoto [1] = assay: solubility in G1/S (NP-40 vs SDS abundance) (log2 ratio); higher = more soluble; conditions: cell cycle stage: G1/S
HeLa Kyoto [2] = assay: melting temperature (median over replicates), in situ; higher = more thermally stable
HeLa Kyoto [3] = assay: solubility change mitosis vs G1/S (difference of NP-40 vs SDS log2 ratios) (log2 ratio difference); higher = more soluble in mitosis
HeLa Kyoto [4] = assay: thermal stability score vs G1/S (z-score of summed log2 fold changes over temperatures); higher = more thermally stable than in G1/S
[5] = cell cycle stage: early G1 (4.5 h after nocodazole release)
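Wherever melting temperature (median over replicates), in situ is given: HeLa Kyoto cells synchronized by double thymidine or nocodazole block, proteins quantified by TMT10plex mass spectrometry, three independent biological replicates.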
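Wherever solubility change mitosis vs G1/S (difference of NP-40 vs SDS log2 ratios) is given: synchronized HeLa Kyoto cells (double thymidine block for G1/S, nocodazole release for mitosis), protein amounts in NP-40 versus SDS lysates quantified by mass spectrometry, three biological replicates.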
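Wherever solubility in G1/S (NP-40 vs SDS abundance) is given: HeLa Kyoto cells arrested at G1/S by double thymidine block, proteins quantified by TMT10plex mass spectrometry in mild NP-40 versus SDS extracts, three biological replicates.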
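Wherever thermal stability score vs G1/S (z-score of summed log2 fold changes over temperatures) is given: synchronized HeLa Kyoto cells, proteins quantified by TMT10plex mass spectrometry, three biological replicates, mitosis taken 0.5 h after nocodazole release, G1/S directly after double thymidine block.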

Sequence of PCYT1A (chain, as listed by the source): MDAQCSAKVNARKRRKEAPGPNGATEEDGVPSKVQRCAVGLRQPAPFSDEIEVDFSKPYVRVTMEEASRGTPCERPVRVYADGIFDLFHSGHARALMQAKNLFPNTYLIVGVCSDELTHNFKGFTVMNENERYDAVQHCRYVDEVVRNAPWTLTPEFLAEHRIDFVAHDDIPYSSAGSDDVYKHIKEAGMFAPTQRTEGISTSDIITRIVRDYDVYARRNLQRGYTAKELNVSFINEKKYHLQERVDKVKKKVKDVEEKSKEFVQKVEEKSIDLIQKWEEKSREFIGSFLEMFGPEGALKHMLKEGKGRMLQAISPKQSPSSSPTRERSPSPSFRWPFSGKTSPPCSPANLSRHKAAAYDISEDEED
Sequence of NLE1 (chain, as listed by the source): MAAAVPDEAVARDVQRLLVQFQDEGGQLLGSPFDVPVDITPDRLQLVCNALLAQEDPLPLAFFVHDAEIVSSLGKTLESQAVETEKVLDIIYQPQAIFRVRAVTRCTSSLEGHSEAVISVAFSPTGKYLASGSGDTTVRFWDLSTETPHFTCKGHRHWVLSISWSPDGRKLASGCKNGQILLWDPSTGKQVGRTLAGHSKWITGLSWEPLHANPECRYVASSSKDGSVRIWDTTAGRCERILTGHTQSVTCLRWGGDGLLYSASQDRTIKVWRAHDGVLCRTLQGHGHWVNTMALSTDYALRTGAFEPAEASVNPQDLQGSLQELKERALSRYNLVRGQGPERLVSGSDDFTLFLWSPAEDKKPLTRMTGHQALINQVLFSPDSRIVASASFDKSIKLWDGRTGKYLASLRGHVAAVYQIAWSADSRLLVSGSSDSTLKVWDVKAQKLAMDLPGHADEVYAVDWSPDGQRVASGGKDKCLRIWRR
Sequence of NCOA3 (chain, as listed by the source): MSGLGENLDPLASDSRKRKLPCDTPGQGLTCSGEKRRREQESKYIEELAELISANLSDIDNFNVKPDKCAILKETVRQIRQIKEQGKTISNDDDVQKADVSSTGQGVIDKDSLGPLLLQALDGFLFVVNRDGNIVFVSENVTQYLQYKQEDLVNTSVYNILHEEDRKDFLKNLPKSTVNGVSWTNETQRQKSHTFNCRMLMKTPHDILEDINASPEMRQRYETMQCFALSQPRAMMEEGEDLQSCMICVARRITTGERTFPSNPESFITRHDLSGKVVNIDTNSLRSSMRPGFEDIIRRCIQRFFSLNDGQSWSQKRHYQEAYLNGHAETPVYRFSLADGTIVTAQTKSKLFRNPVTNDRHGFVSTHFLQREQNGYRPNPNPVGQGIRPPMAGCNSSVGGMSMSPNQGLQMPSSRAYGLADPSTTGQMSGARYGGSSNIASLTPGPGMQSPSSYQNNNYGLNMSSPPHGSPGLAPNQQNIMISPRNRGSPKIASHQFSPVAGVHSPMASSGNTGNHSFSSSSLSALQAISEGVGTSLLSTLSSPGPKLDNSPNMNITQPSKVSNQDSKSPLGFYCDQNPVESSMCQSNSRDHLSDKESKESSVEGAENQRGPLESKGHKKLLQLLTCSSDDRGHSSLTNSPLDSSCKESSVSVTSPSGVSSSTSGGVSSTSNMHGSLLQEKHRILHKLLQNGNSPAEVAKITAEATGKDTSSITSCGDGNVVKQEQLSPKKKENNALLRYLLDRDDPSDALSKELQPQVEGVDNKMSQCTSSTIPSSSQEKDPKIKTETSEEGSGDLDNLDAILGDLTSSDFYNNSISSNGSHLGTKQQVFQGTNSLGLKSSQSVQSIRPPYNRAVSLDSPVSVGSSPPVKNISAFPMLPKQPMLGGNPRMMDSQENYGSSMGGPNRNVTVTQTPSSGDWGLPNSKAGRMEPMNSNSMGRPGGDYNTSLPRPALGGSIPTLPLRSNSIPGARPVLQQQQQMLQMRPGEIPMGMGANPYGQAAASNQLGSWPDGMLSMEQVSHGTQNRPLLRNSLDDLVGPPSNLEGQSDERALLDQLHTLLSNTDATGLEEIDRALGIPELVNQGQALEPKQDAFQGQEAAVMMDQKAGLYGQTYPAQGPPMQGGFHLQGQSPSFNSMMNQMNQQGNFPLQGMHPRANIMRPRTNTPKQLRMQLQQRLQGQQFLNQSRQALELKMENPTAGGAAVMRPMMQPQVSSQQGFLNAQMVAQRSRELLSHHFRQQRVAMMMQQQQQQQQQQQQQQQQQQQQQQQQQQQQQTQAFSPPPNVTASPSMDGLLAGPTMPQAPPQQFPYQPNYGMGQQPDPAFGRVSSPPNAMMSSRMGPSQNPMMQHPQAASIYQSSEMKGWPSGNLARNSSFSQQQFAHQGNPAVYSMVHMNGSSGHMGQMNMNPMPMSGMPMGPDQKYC
Sequence of PGRMC1 (chain, as listed by the source): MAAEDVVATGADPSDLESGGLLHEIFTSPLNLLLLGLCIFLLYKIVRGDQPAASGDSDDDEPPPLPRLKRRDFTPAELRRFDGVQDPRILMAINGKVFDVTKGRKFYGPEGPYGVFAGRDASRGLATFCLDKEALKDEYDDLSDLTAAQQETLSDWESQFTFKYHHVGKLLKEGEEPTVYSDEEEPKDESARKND

Substance | solubility in G1/S (log2) (HeLa Kyoto [1]) | melting temperature (HeLa Kyoto [2]; cell cycle stage: G1/S) | melting temperature (HeLa Kyoto [2]; cell cycle stage: mitosis) | solubility change mitosis (log2) (HeLa Kyoto [3]) | thermal stability score (HeLa Kyoto [4]; [5]) | thermal stability score (HeLa Kyoto [4]; cell cycle stage: mitosis)
MWTFLGIATFTYFYKKFGDFITLANREVLLCVLVFLSLGLVLSYRCRHRNGGLLGRQQSGSQFALFSDILSGLPFIGFFWAKSPPESENKEQLEARRRRKGTNISETSLIGTAACTSTSSQNDPEVIIVGAGVLGSALAAVLSRDGRKVTVIERDLKEPDRIVGEFLQPGGYHVLKDLGLGDTVEGLDAQVVNGYMIHDQESKSEVQIPYPLSENNQVQSGRAFHHGRFIMSLRKAAMAEPNAKFIEGVVLQLLEEDDVVMGVQYKDKETGDIKELHAPLTVVADGLFSKFRKSLVSNKVSVSSHFVGFLMKNAPQFKANHAELILANPSPVLIYQISSSETRVLVDIRGEMPRNLREYMVEKIYPQIPDHLKEPFLEATDNSHLRSMPASFLPPSSVKKRGVLLLGDAYNMRHPLTGGGMTVAFKDIKLWRKLLKGIPDLYDDAAIFEAKKSFYWARKTSHSFVVNILAQALYELFSATDDSLHQLRKACFLYFKLGGECVAGPVGLLSVLSPNPLVLIGHFFAVAIYAVYFCFKSEPWITKPRALLSSGAVLYKACSVIFPLIYSEMKYMVH [SQLE] | -0.21 | 52.7 °C | 53.3 °C | -0.0643 | -0.599 | -0.00194
MYALFLLASLLGAALAGPVLGLKECTRGSAVWCQNVKTASDCGAVKHCLQTVWNKPTVKSLPCDICKDVVTAAGDMLKDNATEEEILVYLEKTCDWLPKPNMSASCKEIVDSYLPVILDIIKGEMSRPGEVCSALNLCESLQKHLAELNHQKQLESNKIPELDMTEVVAPFMANIPLLLYPQDGPRSKPQPKDNGDVCQDCIQMVTDIQTAVRTNSTFVQALVEHVKEECDRLGPGMADICKNYISQYSEIAIQMMMHMQPKEICALVGFCDEVKEMPMQTLVPAKVASKNVIPALELVEPIKKHEVPAKSDVYCEVCEFLVKEVTKLIDNNKTEKEILDAFDKMCSKLPKSLSEECQEVVDTYGSSILSILLEEVSPELVCSMLHLCSGTRLPALTVHVTQPKDGGFCEVCKKLVGYLDRNLEKNSTKQEILAALEKGCSFLPDPYQKQCDQFVAEYEPVLIEILVEVMDPSFVCLKIGACPSAHKPLLGTEKCIWGPSYWCQNTETAAQCNAVEHCKRHVWN [PSAP] | 0.0145 | 58.6 °C | 56.3 °C | 0.32 | -1.22 | -0.0458
MYDNMSTMVYIKEDKLEKLTQDEIISKTKQVIQGLEALKNEHNSILQSLLETLKCLKKDDESNLVEEKSNMIRKSLEMLELGLSEAQVMMALSNHLNAVESEKQKLRAQVRRLCQENQWLRDELANTQQKLQKSEQSVAQLEEEKKHLEFMNQLKKYDDDISPSEDKDTDSTKEPLDDLFPNDEDDPGQGIQQQHSSAAAAAQQGGYEIPARLRTLHNLVIQYASQGRYEVAVPLCKQALEDLEKTSGHDHPDVATMLNILALVYRDQNKYKDAANLLNDALAIREKTLGKDHPAVAATLNNLAVLYGKRGKYKEAEPLCKRALEIREKVLGKDHPDVAKQLNNLALLCQNQGKYEEVEYYYQRALEIYQTKLGPDDPNVAKTKNNLASCYLKQGKFKQAETLYKEILTRAHEREFGSVDDENKPIWMHAEEREECKGKQKDGTSFGEYGGWYKACKVDSPTVTTTLKNLGALYRRQGKFEAAETLEEAAMRSRKQGLDNVHKQRVAEVLNDPENMEKRRSRESLNVDVVKYESGPDGGEEVSMSVEWNGGVSGRASFCGKRQQQQWPGRRHR [KLC1] | 0.299 | 51.6 °C | 51.4 °C | -0.175 | 0.136 | 0.172
MYHNSSQKRHWTFSSEEQLARLRADANRKFRCKAVANGKVLPNDPVFLEPHEEMTLCKYYEKRLLEFCSVFKPAMPRSVVGTACMYFKRFYLNNSVMEYHPRIIMLTCAFLACKVDEFNVSSPQFVGNLRESPLGQEKALEQILEYELLLIQQLNFHLIVHNPYRPFEGFLIDLKTRYPILENPEILRKTADDFLNRIALTDAYLLYTPSQIALTAILSSASRAGITMESYLSESLMLKENRTCLSQLLDIMKSMRNLVKKYEPPRSEEVAVLKQKLERCHSAELALNVITKKRKGYEDDDYVSKKSKHEEEEWTDDDLVESL [CCNH] | 0.259 | 51.1 °C | 52.2 °C | -0.195 | 0.868 | 1.73
MYLVAGDRGLAGCGHLLVSLLGLLLLLARSGTRALVCLPCDESKCEEPRNCPGSIVQGVCGCCYTCASQRNESCGGTFGIYGTCDRGLRCVIRPPLNGDSLTEYEAGVCEDENWTDDQLLGFKPCNENLIAGCNIINGKCECNTIRTCSNPFEFPSQDMCLSALKRIEEEKPDCSKARCEVQFSPRCPEDSVLIEGYAPPGECCPLPSRCVCNPAGCLRKVCQPGNLNILVSKASGKPGECCDLYECKPVFGVDCRTVECPPVQQTACPPDSYETQVRLTADGCCTLPTRCECLSGLCGFPVCEVGSTPRIVSRGDGTPGKCCDVFECVNDTKPACVFNNVEYYDGDMFRMDNCRFCRCQGGVAICFTAQCGEINCERYYVPEGECCPVCEDPVYPFNNPAGCYANGLILAHGDRWREDDCTFCQCVNGERHCVATVCGQTCTNPVKVPGECCPVCEEPTIITVDPPACGELSNCTLTGKDCINGFKRDHNGCRTCQCINTEELCSERKQGCTLNCPFGFLTDAQNCEICECRPRPKKCRPIICDKYCPLGLLKNKHGCDICRCKKCPELSCSKICPLGFQQDSHGCLICKCREASASAGPPILSGTCLTVDGHHHKNEESWHDGCRECYCLNGREMCALITCPVPACGNPTIHPGQCCPSCADDFVVQKPELSTPSICHAPGGEYFVEGETWNIDSCTQCTCHSGRVLCETEVCPPLLCQNPSRTQDSCCPQCTDQPFRPSLSRNNSVPNYCKNDEGDIFLAAESWKPDVCTSCICIDSVISCFSESCPSVSCERPVLRKGQCCPYCIEDTIPKKVVCHFSGKAYADEERWDLDSCTHCYCLQGQTLCSTVSCPPLPCVEPINVEGSCCPMCPEMYVPEPTNIPIEKTNHRGEVDLEVPLWPTPSENDIVHLPRDMGHLQVDYRDNRLHPSEDSSLDSIASVVVPIIICLSIIIAFLFINQKKQWIPLLCWYRTPTKPSSLNNQLVSVDCKKGTRVQVDSSQRMLRIAEPDARFSGFYSMQKQNHLQADNFYQTV [CRIM1] | -0.0525 | 53.8 °C | 54.9 °C | -0.0635 | -2.44 | -0.713
MYO5B | -0.588 | 49.7 °C | 53.1 °C | 0.158 | -0.778 | -0.163
MYO5C | -0.665 | 50.9 °C | – | 0.291 | 0.384 | 1.14
MYPESTTGSPARLSLRQTGSPGMIYSTRYGSPKRQLQFYRNLGKSGLRVSCLGLGTWVTFGGQITDEMAEQLMTLAYDNGINLFDTAEVYAAGKAEVVLGNIIKKKGWRRSSLVITTKIFWGGKAETERGLSRKHIIEGLKASLERLQLEYVDVVFANRPDPNTPMEETVRAMTHVINQGMAMYWGTSRWSSMEIMEAYSVARQFNLTPPICEQAEYHMFQREKVEVQLPELFHKIGVGAMTWSPLACGIVSGKYDSGIPPYSRASLKGYQWLKDKILSEEGRRQQAKLKELQAIAERLGCTLPQLAIAWCLRNEGVSSVLLGASNADQLMENIGAIQVLPKLSSSIIHEIDSILGNKPYSKKDYRS [KCNAB2] | 0.117 | 60.3 °C | 58.8 °C | -0.201 | -0.252 | 3.11
MYRALRLLARSRPLVRAPAAALASAPGLGGAAVPSFWPPNAARMASQNSFRIEYDTFGELKVPNDKYYGAQTVRSTMNFKIGGVTERMPTPVIKAFGILKRAAAEVNQDYGLDPKIANAIMKAADEVAEGKLNDHFPLVVWQTGSGTQTNMNVNEVISNRAIEMLGGELGSKIPVHPNDHVNKSQSSNDTFPTAMHIAAAIEVHEVLLPGLQKLHDALDAKSKEFAQIIKIGRTHTQDAVPLTLGQEFSGYVQQVKYAMTRIKAAMPRIYELAAGGTAVGTGLNTRIGFAEKVAAKVAALTGLPFVTAPNKFEALAAHDALVELSGAMNTTACSLMKIANDIRFLGSGPRSGLGELILPENEPGSSIMPGKVNPTQCEAMTMVAAQVMGNHVAVTVGGSNGHFELNVFKPMMIKNVLHSARLLGDASVSFTENCVVGIQANTERINKLMNESLMLVTALNPHIGYDKAAKIAKTAHKNGSTLKETAIELGYLTAEQFDEWVKPKDMLGPK [FH] | 0.478 | 53.5 °C | 53.4 °C | 0.0382 | 1.14 | -0.915
NCOA3 | 0.355 | 51.2 °C | 49.8 °C | -0.0688 | 0.836 | 1.22
NFIA | -0.00202 | 59 °C | 62.1 °C | 0.0442 | 0.325 | 1.68
NIPBL | -0.446 | 47.3 °C | 49.3 °C | 0.263 | 2.24 | 6.45
NLE1 | -0.35 | 53 °C | 54.2 °C | 0.0775 | -1.88 | -4.55
NUP210 | -0.0147 | 54.3 °C | 53.7 °C | 0.0421 | 6.11 | 9.9
PACS1 | 0.119 | 50.8 °C | 51.4 °C | -0.211 | -0.425 | 0.437
PCMT1 | 0.427 | 54 °C | 54.8 °C | 0.147 | 0.536 | -0.469
PCYT1A | 0.341 | 51.4 °C | 52.4 °C | -0.0895 | 2.25 | 3.79
PDE4DIP | 0.0173 | 51.6 °C | – | 0.0943 | 0.534 | 0.401
PGRMC1 | 0.15 | 53.1 °C | 52.8 °C | 0.219 | -0.433 | -0.0697
PKN2 | -0.0314 | 48.3 °C | 49.3 °C | -0.163 | 0.95 | 1.36
PLPP2 | -0.0273 | 55 °C | 54.3 °C | -0.279 | 0.347 | -1.64
PLXNB2 | -0.0357 | 52.2 °C | 51.1 °C | -0.0477 | -1.95 | -2.08
PLXND1 | 0.0061 | 49.5 °C | 48.7 °C | -0.0638 | 0.367 | 0.672
